Results on 102 substances are retold here after the supplement of paper PMC12042874.

± gives the uncertainty stated by the source.

A short description of the series: amyloid nucleation score (Sup35N fusion, yeast selection) (log enrichment); library NNK2; higher = more nucleation; inactive = no reads after selection. The procedure, abridged:
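Random libraries were run with three technical output replicates. In each, psi-negative yeast expressing Sup35N fused to peptides of 20 random codons were induced 24 hours with 100 μM copper sulfate and grown 7 days at 30°C on medium lacking adenine and uracil, and input and output plasmid inserts were Illumina-sequenced. The nucleation score is the DiMSum log enrichment of output over input reads, centred on the mode score of non-aggregating sequences, and sequences under 100 input reads were excluded.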

For HVGFHQKVRSELCRA, the amyloid nucleation score came out at 0.087 ± 0.51. In turn, KDKGVCSQLYRDLVWRDEVF registered an amyloid nucleation score of -0.035 ± 0.31. Turning to SKQTITFRSVQEDSWRRFGH, the amyloid nucleation score came to 5.49 ± 0.076.

SNCFHLVW returned an amyloid nucleation score of -0.031 ± 1. Take IICTSSPQLIVYTSVRS: the amyloid nucleation score amounted to 7.08 ± 0.042. The substance YNWHMSHFYDLGP returned an amyloid nucleation score of 4.99 ± 0.099. The figure for FNRKTKWAYFWLVHGRNR is 5.213 ± 0.052; for GECHEWV it is -0.837 ± 1.1. The figure for ILTFRVYPIPFDFYFGGLEL is 0.034 ± 1.1; for GLVLWRRHFKAAASVSMQSW it is 0.216 ± 0.4. The figure for YPVTYQLCILICTGYADKWR is -1.26 ± 0.64; for LLWSTILMFWF it is “inactive”; for SFQPMRQFNFMINLWTVGAA it is 7.179 ± 0.056. Consider YGAWRFGRLALSRRPSYCGM, for which the amyloid nucleation score is -0.271 ± 0.27. The figure for WNECVFGAPAFSRE is 3.11 ± 0.15. SHTWKQMRYYLDNWSLY returned an amyloid nucleation score of -0.288 ± 1.

As for TQDDAHQVRGQCVPSENIGP, the amyloid nucleation score was found to be 1.96 ± 0.21. The figure for RSELLRRKGILMYLLPGGGY is 0.009 ± 0.61.

For the substance FAFAINRFCDSRRPVLCYWD, the amyloid nucleation score was -1.21 ± 1.1. LEYFITTSGSSSKVLHGFTM had an amyloid nucleation score of -0.986 ± 1.1. The entry for YLWWMKSNY is “inactive”; for SHQLICFSWRLDFYHRGLLQ it is 2.5 ± 0.13. The entry for PRLCDECPSCVDLSGVWNPY is “inactive”; for NVCRVDMAEKFGSFRLCN it is -0.846 ± 0.34. Consider VFAYYIDRARSSRVPCTVAN, for which the amyloid nucleation score came to 4.28 ± 0.12.

As for CINLTLYFMQ, the amyloid nucleation score amounted to 9.091 ± 0.053. The entry for VLMYIWDLVGGSLSFKKVLF is “inactive”. As to MWLGLTRRMVITSCYN, the amyloid nucleation score turned out to be 0.461 ± 0.36.

Consider FCSSFEEYICLNYVIRSEWM, for which the amyloid nucleation score is 3.82 ± 0.095. FDVESMSNDLMAQWHKMLAC yielded an amyloid nucleation score of -0.452 ± 0.48. The figure for DRFMVMFMLKVGVIVWNYGD is 0.262 ± 0.54; for FNTYVVNFSRRGDIVMAKR it is 6.59 ± 0.085. The figure for VKNFYNSSINGLGLYMNMRF is 2.43 ± 0.068; for AVFSSVLGYNA it is 0.257 ± 0.56. With DSRCIDTVFNWYEHTSSRYR, the amyloid nucleation score is -0.287 ± 0.55. The figure for NRVGSIPIGPVFTADVAIVL is 4.16 ± 0.091. The entry for RIDGVFTIVSFYMELEGIRV is “inactive”; for KLVGMPFSSVACNSFKHRSE it is 0.408 ± 0.16; for ERLGSLFNDGQANS it is 0.21 ± 0.41.

Substance LVPPVLGAHVSNKVDVILHA registered an amyloid nucleation score of -0.199 ± 1.1. The figure for SKCVWIKDQNFFQVDTNESI is 1.73 ± 0.34. The figure for VPRSQIVVGIMFP is -1.06 ± 0.55; for YCINGLGIGTELCVFTTKWM it is -0.479 ± 0.3. The figure for MVSFGSGGELFFMHTQFSAR is -0.311 ± 0.64; for LLRVMLHISLVMC it is -1.34 ± 0.53; for WFDKFRMCEEFAYYFFLPQW it is -0.856 ± 0.63. On to YRGINGTTGFQLWAPA, for which the amyloid nucleation score entry was “inactive”. On to CYMYDSVTNWTYWLSG, for which the amyloid nucleation score was -0.679 ± 0.26. The figure for FNVKWMRW is 5.36 ± 0.066; for IAFYMLSWGMMLV it is -0.074 ± 0.8.

Substance RVYPFGRTRIFKTM gave an amyloid nucleation score of 1.33 ± 0.15. The figure for SVIIQLSYTRGYWLLQA is -0.845 ± 0.45. The figure for RPKSKADYGWC is -0.119 ± 0.45; for FYRGLVDHRMNFITFNCGRQ it is 5.6 ± 0.095; for KYRYRLVQR it is -0.656 ± 1.1. The entry for MTALSTVDWRYSAHFSS is “inactive”; for CLAVSSDVDSQGKGIRIYIL it is -1.24 ± 1.1; for DKANRDQWHQAKSSVCFGGV it is 0.089 ± 0.56. Turning to RSRDRGRCWFMMSRGMGGVA, the amyloid nucleation score turned out to be 0.483 ± 0.56.

The substance FFQGSVSLCFQASHQWSFLI registered an amyloid nucleation score of 3.06 ± 0.11. The figure for YRPQATGLGSRGRR is 0.81 ± 0.43; for ECGPWKFDRIERDMNAVVER it is 2.46 ± 0.17.

In turn, IYVECWRHRLILCIHA had an amyloid nucleation score of 0.214 ± 0.49. The figure for RGKYAITCVMLWK is 5.769 ± 0.054. The figure for CYSYWPRSPFIWY is -0.978 ± 1.1; for YYGALWRYAGMSG it is -0.472 ± 0.3. Substance GLLPFGISAMNLRFHQGVAR showed an amyloid nucleation score of -0.359 ± 0.2. The figure for LLLPSAGKGSL is 0.219 ± 1. The substance IFSNLRSFE displayed an amyloid nucleation score of 0.657 ± 0.22.

On to FLRIVSNVLKWQRA, for which the amyloid nucleation score was determined as 2.83 ± 0.069.

VGFISDNYYWYNPKVNGIWV: the amyloid nucleation score was -0.834 ± 0.27.

Turning to AARVIGWAFVDWFCLSKG, the amyloid nucleation score entry is “inactive”. With CRLADFAPFRHCFFSHDCSR, the amyloid nucleation score came to 3.57 ± 0.046. In turn, AMFVLVGFEFY came in with an amyloid nucleation score of 1.47 ± 0.11. Turning to NWLQFF, the amyloid nucleation score was found to be 0.966 ± 0.13. TGFGTSMFSKLYVNVNYL came in with an amyloid nucleation score of 5.37 ± 0.072. For MSKDTVMPWERIKEVLHCLG, the amyloid nucleation score is 0.342 ± 0.3. IFYYG registered an amyloid nucleation score of -0.945 ± 0.36. Take LSYRVRCIRMNMLSSALGTM: the amyloid nucleation score result is “inactive”. The figure for TDCTLSGKRLRYLNGDCFKK is -1.13 ± 0.55; for CLGGNHYHPSSTVTEQRYLT it is 0.859 ± 0.48; for FIDPGHFTLDLGCSPPESEV it is 4.5 ± 0.085. MTLIAVDSLSYLWANDNRRG came in with an amyloid nucleation score of 0.353 ± 0.36. NRSDPDLCNKC came in with an amyloid nucleation score of 1.96 ± 0.14. The figure for SRGSYIPSPLRHSFSVLWRF is -0.785 ± 0.63; for MIYSVMFNVNGACTYNCRII it is 7.478 ± 0.055; for SMISWATMVSRRDYLYMCV it is -0.216 ± 0.45.

With LSWAHVVICLIW, the amyloid nucleation score result is “inactive”.

For LSCNMFDPVGQWCCGKKVGA, the amyloid nucleation score amounted to 1.07 ± 0.42. The figure for RLKYHWGGFEA is 0.767 ± 0.4; for QGHISHTGLIPMLGGSL it is 3.23 ± 0.15; for RTRRSSTGGRNEASGNRSAG it is 2.87 ± 0.13. For SYFSCCLFFRAFSTFFGVIP, the amyloid nucleation score is 3.33 ± 0.11. The figure for YIWILWIAMEQNKSWRGQHD is 4.44 ± 0.12; for SYASWYCLYCKNSGQGFLFE it is 7.948 ± 0.026; for RYNESEVSISRETRNVVLTF it is 0.712 ± 0.26. The entry for RFNIFVLLFLVPEVGLHMVV is “inactive”; for FNRFLKYMPSSWLWQGCSVQ it is -0.451 ± 0.36. DKSNLARFTSSKWS: the amyloid nucleation score is 0.426 ± 0.35. CTRRDFFGQTTAHVSVWCTG came in with an amyloid nucleation score of 4.33 ± 0.081. In turn, ACCFESSGIQLEVRGGGAWG showed an amyloid nucleation score of 1.58 ± 0.27. The figure for GPISVKRYL is 1.64 ± 0.35.
